Legend:
Test in all cases: cell-based or functional assay
[1] = target: HIV-1 envelope glycoprotein of pseudovirus SC422661.8 (HIV-1)
[2] = target: HIV-1 envelope glycoprotein of pseudovirus RHPA4259.7 (HIV-1)
[3] = target: HIV-1 envelope glycoprotein of pseudovirus DU172.17 (HIV-1)
[4] = target: HIV-1 envelope glycoprotein of pseudovirus BB1012-11.TC21 (HIV-1)
[5] = target: HIV-1 envelope glycoprotein of pseudovirus CNE52 (HIV-1)
[6] = target: HIV-1 envelope glycoprotein of pseudovirus 0260.v5.c36 (HIV-1)
HIV-1 pseudovirus 263-8 = HIV-1 pseudovirus 263-8 (HIV-1)
[7] = target: HIV-1 pseudovirus SC05.8C11.2344 (HIV-1)
[8] = target: HIV-1 pseudovirus X1193_c1 (HIV-1)
[9] = target: HIV-1 pseudovirus Ce1176_A3 (HIV-1)
[10] = target: HIV-1 pseudovirus AC10.0.29 (HIV-1)
[11] = target: HIV-1 pseudovirus 6952.v1.c20 (HIV-1)

Binder	IC50 (neutralization in TZM.bl cells) [1]	IC80 (neutralization in TZM.bl cells) [1]	IC50 (neutralization in TZM.bl cells) [2]	IC80 (neutralization in TZM.bl cells) [2]	IC50 (neutralization in TZM.bl cells) [3]	IC80 (neutralization in TZM.bl cells) [3]	IC50 (neutralization in TZM.bl cells) [4]	IC80 (neutralization in TZM.bl cells) [4]	IC50 (neutralization in TZM.bl cells) (HIV-1 pseudovirus 263-8)	IC80 (neutralization in TZM.bl cells) (HIV-1 pseudovirus 263-8)	IC50 (neutralization in TZM.bl cells) [7]	IC80 (neutralization in TZM.bl cells) [7]	IC50 (neutralization in TZM.bl cells) [8]	IC80 (neutralization in TZM.bl cells) [8]	IC50 (neutralization in TZM.bl cells) [9]	IC80 (neutralization in TZM.bl cells) [9]	IC50 (neutralization in TZM.bl cells) [10]	IC80 (neutralization in TZM.bl cells) [10]	IC50 (neutralization in TZM.bl cells) [11]	IC80 (neutralization in TZM.bl cells) [11]	further results
MS-112 (antibody) VH: not shown VL: DFVLTQSPHSLSVTPGEPASISCKSSHSLIHGDRNNYLAWYVQKPGRSPQLLIYLASSRASGVPDRFSGSGSGKDFTLKISRVEAEDVGTYYCMQGRESPWTFGQGTKVDIKRTVAAPSVFIFPPSDEQLKSGTASVVCLLNNFYPREAKVQWKVDNALQSGNSQESVTEQDSKDSTYSLSSTLTLSKADYEKHKVYACEVTHQGLSSPVTKSFNRGEC	0.275 µg/mL	1.44 µg/mL	0.195 µg/mL	0.661 µg/mL	1.77 µg/mL	4.91 µg/mL	0.032 µg/mL	0.129 µg/mL	–	–	–	–	–	–	–	–	–	–	–	–	IC50 (neutralization in TZM.bl cells) [5]: 0.133 µg/mL; IC80 (neutralization in TZM.bl cells) [5]: 1.16 µg/mL; IC50 (neutralization in TZM.bl cells) [6]: 0.022 µg/mL; IC80 (neutralization in TZM.bl cells) [6]: 0.059 µg/mL
MS-90 (antibody) VH: not shown VL: DFVLTQSPLSLSVTPGESASISCKSSHSLIHGDRNNYLAWYVQKPGRSPQLLIYLASSRASGVPDRFSGSGSDKDFTLKISRVETEDVGTYYCMQGRESPWTFGQGTKVDIKRTVAAPSVFIFPPSDEQLKSGTASVVCLLNNFYPREAKVQWKVDNALQSGNSQESVTEQDSKDSTYSLSSTLTLSKADYEKHKVYACEVTHQGLSSPVTKSFNRGEC	–	–	–	–	–	–	–	–	0.021 µg/mL	0.109 µg/mL	1.5 µg/mL	3.84 µg/mL	0.114 µg/mL	0.399 µg/mL	0.22 µg/mL	4.24 µg/mL	0.059 µg/mL	0.592 µg/mL	2.68 µg/mL	> 25 µg/mL	–
MS-114 (antibody) VH: not shown VL: DIVLTQSPLSLSVTPGEPASISCKSSHSLIHGDRNNYLAWYVQKPGRSPQLLIYLASSRASGVPDRFSGSGSDKDFTLKISRVEAEDVGTYYCMQGRESPWTFGQGTKVDIKRTVAAPSVFIFPPSDEQLKSGTASVVCLLNNFYPREAKVQWKVDNALQSGNSQESVTEQDSKDSTYSLSSTLTLSKADYEKHKVYACEVTHQGLSSPVTKSFNRGEC	0.236 µg/mL	2.21 µg/mL	0.237 µg/mL	1.24 µg/mL	1.66 µg/mL	7.74 µg/mL	0.033 µg/mL	0.136 µg/mL	–	–	–	–	–	–	–	–	–	–	–	–	IC50 (neutralization in TZM.bl cells) [5]: 0.444 µg/mL; IC80 (neutralization in TZM.bl cells) [5]: 3.61 µg/mL; IC50 (neutralization in TZM.bl cells) [6]: 0.03 µg/mL; IC80 (neutralization in TZM.bl cells) [6]: 0.105 µg/mL
MS-113 (antibody) VH: not shown VL: DIVLTQSPLSLSVTPGEPASISCKSSHSLIHGDRNNYLAWYVQKPGRSPQLLIYLASSRASGVPDRFSGSGSGKDFTLKISRVETEDVGTYYCMQGRESPWTFGQGTKVDIKRTVAAPSVFIFPPSDEQLKSGTASVVCLLNNFYPREAKVQWKVDNALQSGNSQESVTEQDSKDSTYSLSSTLTLSKADYEKHKVYACEVTHQGLSSPVTKSFNRGEC	0.354 µg/mL	2.12 µg/mL	0.206 µg/mL	0.696 µg/mL	2.22 µg/mL	8.27 µg/mL	0.026 µg/mL	0.109 µg/mL	–	–	–	–	–	–	–	–	–	–	–	–	IC50 (neutralization in TZM.bl cells) [5]: 0.502 µg/mL; IC80 (neutralization in TZM.bl cells) [5]: 5.04 µg/mL; IC50 (neutralization in TZM.bl cells) [6]: 0.026 µg/mL; IC80 (neutralization in TZM.bl cells) [6]: 0.092 µg/mL
MS-115 (antibody) VH: not shown VL: DIVLTQSPLSLSVTPGESASISCKSSHSLIHGDRNNYLAWYVQKPGRSPQLLIYLASSRASGVPDRFSGSGSGKDFTLKISRVEAEDVGTYYCMQGRESPWTFGQGTKVDIKRTVAAPSVFIFPPSDEQLKSGTASVVCLLNNFYPREAKVQWKVDNALQSGNSQESVTEQDSKDSTYSLSSTLTLSKADYEKHKVYACEVTHQGLSSPVTKSFNRGEC	0.202 µg/mL	1.03 µg/mL	0.237 µg/mL	0.647 µg/mL	1.83 µg/mL	5.04 µg/mL	0.024 µg/mL	0.106 µg/mL	–	–	–	–	–	–	–	–	–	–	–	–	IC50 (neutralization in TZM.bl cells) [5]: 0.489 µg/mL; IC80 (neutralization in TZM.bl cells) [5]: 5.46 µg/mL; IC50 (neutralization in TZM.bl cells) [6]: 0.025 µg/mL; IC80 (neutralization in TZM.bl cells) [6]: 0.067 µg/mL
MS-87 (antibody, V domains shown) VH: QVQLVQSGPEVRKPGTSVKVSCKAPGNTLKTYDLHWVRSVPGQGLQWMGWISHEGDKKVIVERFKAKVTITRDRSTNTAYLQLSGLTSGDTAVYYCAKGSKHRLRDYALYDDDGALNWAVDVDYLSNLEFWGQGTAVTVSS VL: DFVLTQSPHSLSVTPGESASISCKSSHSLIHGDRNNYLAWYVQKPGRSPQLLIYLASSRASGVPDRFSGSGSDKDFTLKISRVETEDVGTYYCMQGRESPWTFGQGTKVDIKR	–	–	–	–	–	–	–	–	0.065 µg/mL	0.361 µg/mL	1.23 µg/mL	5.17 µg/mL	0.098 µg/mL	0.277 µg/mL	0.907 µg/mL	25 µg/mL	0.059 µg/mL	0.328 µg/mL	> 25 µg/mL	> 25 µg/mL	–
MS-89 (antibody, V domains shown) VH: QVQLVQSGPEVRKPGTSVKVSCKAPGYTLKTYDLHWVRSVPGQGLQWMGWISHEGDKKVIVERFKAKVTITWDRSTNTAYLQLSGLTSGDTAVYYCAKGSKHRLRDYALYDDDGALNWAVDVDYLSNLEFWGQGTAVTVSS VL: DFVLTQSPLSLSVTPGESASISCKSSHSLIHGDRNNYLAWYVQKPGRSPQLLIYLASSRASGVPDRFSGSGSDKDFTLKISRVETEDVGTYYCMQGRESPWTFGQGTKVDIKR	–	–	–	–	–	–	–	–	> 25 µg/mL	> 25 µg/mL	0.82 µg/mL	3.75 µg/mL	0.144 µg/mL	0.636 µg/mL	0.298 µg/mL	9.21 µg/mL	0.067 µg/mL	0.618 µg/mL	> 25 µg/mL	> 25 µg/mL	–
MS-88 (antibody, V domains shown) VH: QVQLVQSGPEVRKPGTSVKVSCKASGYTFKTYDLHWVRSVPGQGLQWMGWISHEGDKKVIVERFKAKVTITRDRSTNTAYLQLSGLTSGDTAVYYCAKGSKHRLRDYALYDDDGALNWAVDVDYLSNLEFWGQGTAVTVSS VL: DFVLTQSPHSLSVTPGESASISCKSSHSLIHGDRNNYLAWYVQKPGRSPQLLIYLASSRASGVPDRFSGSGSDKDFTLKISRVETEDVGTYYCMQGRESPWTFGQGTKVDIKR	–	–	–	–	–	–	–	–	0.111 µg/mL	0.99 µg/mL	1.54 µg/mL	7.31 µg/mL	0.171 µg/mL	0.775 µg/mL	2.76 µg/mL	> 25 µg/mL	0.089 µg/mL	0.743 µg/mL	> 25 µg/mL	> 25 µg/mL	–
MS-92 (antibody, V domains shown) VH: QVQLVQSGPEVRKPGTSVKVSCKAPGNTLKTYDLHWVRSVPGQGLEWMGWISHEGDKKVIVERFKAKVTIDRDRSTNTAYLQLSGLRSGDTAVYYCAKGSKHRLRDYALYDDDGALNWAVDVDYLSNLEFWGQGTAVTVSS VL: DIVLTQSPHSLSVTPGESASISCKSSHSLIHGDRNNYLAWYVQKPGRSPQLLIYLASSRASGVPDRFSGSGSDKDFTLKISRVETEDVGTYYCMQGRESPWTFGQGTKVDIKR	–	–	–	–	–	–	–	–	0.024 µg/mL	0.208 µg/mL	1.54 µg/mL	4.09 µg/mL	0.11 µg/mL	0.529 µg/mL	0.6 µg/mL	9.78 µg/mL	0.051 µg/mL	0.446 µg/mL	7.38 µg/mL	> 25 µg/mL	–
MS-91 (antibody, V domains shown) VH: QVQLVQSGPEVRKPGTSVKVSCKASGYTLKTYDLHWVRSVPGQGLQWMGWISHEGDKKVIVERFKAKVTIDWDRSTNTAYLQLSGLTSGDTAVYYCAKGSKHRLRDYALYDDDGALNWAVDVDYLSNLEFWGQGTAVTVSS VL: DFVLTQSPLSLSVTPGESASISCKSSHSLIHGDRNNYLAWYVQKPGRSPQLLIYLASSRASGVPDRFSGSGSDTDFTLKISRVETEDVGTYYCMQGRESPWTFGQGTKVDIKR	–	–	–	–	–	–	–	–	0.02 µg/mL	0.075 µg/mL	0.848 µg/mL	2.84 µg/mL	0.057 µg/mL	0.388 µg/mL	0.213 µg/mL	2.04 µg/mL	0.07 µg/mL	0.632 µg/mL	2.62 µg/mL	> 25 µg/mL	–

From patent publication US20220025021A1 (BETH ISRAEL DEACONESS MEDICAL CENTER, published 2022)
